The values that follow come from PMC8794802.

For one series, the target named is T1, Pus7 delta ID-I (Saccharomyces cerevisiae, UniProt Q08647 1-74+216-676, internal_change).
T1 sequence: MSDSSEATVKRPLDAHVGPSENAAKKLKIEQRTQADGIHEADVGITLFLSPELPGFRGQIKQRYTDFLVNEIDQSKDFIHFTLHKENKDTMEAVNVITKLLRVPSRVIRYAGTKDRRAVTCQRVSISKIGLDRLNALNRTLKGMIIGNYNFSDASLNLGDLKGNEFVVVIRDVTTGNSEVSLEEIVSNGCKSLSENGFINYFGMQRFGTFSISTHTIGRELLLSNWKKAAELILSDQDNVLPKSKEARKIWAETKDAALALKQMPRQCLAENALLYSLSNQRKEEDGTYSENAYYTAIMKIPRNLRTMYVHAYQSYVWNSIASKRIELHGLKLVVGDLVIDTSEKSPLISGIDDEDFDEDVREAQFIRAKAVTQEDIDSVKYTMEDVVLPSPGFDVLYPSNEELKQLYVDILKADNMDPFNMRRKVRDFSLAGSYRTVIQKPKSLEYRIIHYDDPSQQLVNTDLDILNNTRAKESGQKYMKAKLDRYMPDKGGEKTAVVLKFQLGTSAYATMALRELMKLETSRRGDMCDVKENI
Nature of the series: EMSA.

For another series, the target named is T2, Pus7 WT (Saccharomyces cerevisiae, UniProt Q08647 1-676).
T2 sequence: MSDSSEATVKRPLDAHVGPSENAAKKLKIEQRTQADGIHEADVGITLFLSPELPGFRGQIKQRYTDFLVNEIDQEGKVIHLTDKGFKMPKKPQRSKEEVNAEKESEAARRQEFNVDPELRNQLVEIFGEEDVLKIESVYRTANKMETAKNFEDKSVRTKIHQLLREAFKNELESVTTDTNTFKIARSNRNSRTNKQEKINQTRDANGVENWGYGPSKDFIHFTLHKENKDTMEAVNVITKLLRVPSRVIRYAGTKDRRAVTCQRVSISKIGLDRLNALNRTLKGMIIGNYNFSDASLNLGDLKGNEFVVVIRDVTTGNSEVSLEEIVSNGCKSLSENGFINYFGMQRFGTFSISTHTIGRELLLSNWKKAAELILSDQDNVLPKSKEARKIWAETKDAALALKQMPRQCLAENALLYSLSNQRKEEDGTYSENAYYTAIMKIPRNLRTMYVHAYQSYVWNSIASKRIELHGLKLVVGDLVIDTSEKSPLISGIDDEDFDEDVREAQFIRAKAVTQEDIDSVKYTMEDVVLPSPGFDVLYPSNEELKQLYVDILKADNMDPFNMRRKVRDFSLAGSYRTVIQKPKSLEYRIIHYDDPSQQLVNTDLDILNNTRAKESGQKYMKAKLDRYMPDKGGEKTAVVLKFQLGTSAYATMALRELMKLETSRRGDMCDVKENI
Put plainly: EMSA. (In EMSA bound probe runs differently from free probe, usually more slowly.)

B1: Psi-modified CDC8 (ssRNA)
RNA: GUCAAUCACGAUUGUAGACGUUACUAAUAAGGGCAUUCAGGAAGUUGAAGCGCUUAUUUGG
modifications: pseudouridine at the UGUAG target U (U15)
A word on the Kd: it is the free concentration of one partner at which half of the binding sites on the other are occupied at equilibrium, for simple one-to-one binding. In the case of B1, in the series with Pus7 delta ID-I, the binding signal is 8 fold weaker than D256A/delta ID-I on unmodified CDC8. Besides, in the series with Pus7 WT, the affinity, expressed as Kd, was 75 ± 15 nM.
